Consider 1 substance from paper doi:10.1101/2022.06.01.494398.

The test deals with CERTL (long isoform of the ceramide transport protein CERT; GPBP, COL4A3BP) (UniProt Q9Y5P4). Kind of test: SEC-MALS of self-association. Conditions: reference: hyperphosphorylated wild-type StrepII-CERTL (CERTLP); sites S132. Background: SEC sorts molecules by how far they enter the pores of the column.
Sequence of CERTL (long isoform of the ceramide transport protein CERT; GPBP, COL4A3BP) (Q9Y5P4 whole entry S132A, canonical isoform): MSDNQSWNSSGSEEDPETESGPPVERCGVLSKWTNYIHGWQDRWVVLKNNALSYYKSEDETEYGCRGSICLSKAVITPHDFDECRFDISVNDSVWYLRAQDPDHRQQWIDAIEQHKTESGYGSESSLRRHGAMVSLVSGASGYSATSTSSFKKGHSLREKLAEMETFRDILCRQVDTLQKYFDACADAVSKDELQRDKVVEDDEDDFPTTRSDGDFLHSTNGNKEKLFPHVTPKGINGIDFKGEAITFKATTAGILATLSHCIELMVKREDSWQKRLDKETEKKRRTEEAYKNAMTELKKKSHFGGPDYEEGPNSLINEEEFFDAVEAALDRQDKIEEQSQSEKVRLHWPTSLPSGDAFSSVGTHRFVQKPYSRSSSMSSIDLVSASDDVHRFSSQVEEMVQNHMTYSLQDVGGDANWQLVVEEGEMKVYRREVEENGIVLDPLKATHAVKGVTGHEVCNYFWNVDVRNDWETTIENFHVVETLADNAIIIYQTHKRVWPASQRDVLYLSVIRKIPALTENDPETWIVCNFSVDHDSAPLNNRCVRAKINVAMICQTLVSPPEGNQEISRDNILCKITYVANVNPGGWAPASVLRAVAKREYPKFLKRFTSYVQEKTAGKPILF

Consider “CERTL (long isoform of the ceramide transport protein CERT; GPBP, COL4A3BP) (from UniProt Q9Y5P4) StrepII-CERTL S132A (hypophosphorylated)”, for which the “other: observed mass (expected trimer 215.7)” value is reported as “same; reference 184.3”.
